The labels stand for the following.
B1: Transcriptional regulator ERG, residues 117 to 197; numbered along this chain, P11308 (parent)
chain: NMTTNERRVIVPADPTLWSTDHVRQWLEWAVKEYGLPDVNILLFQNIDGKELCKMTKDDFQRLTPSYNADILLSHLHYLRE

± gives the uncertainty stated by the source.

In the series the parent is B1. Description: abundance fitness (aPCA) (normalised: wild type 0, dead -1); higher = more abundant; growth selection in yeast, the domain comes from the species named. Conditions: Homo sapiens.
NMTTNERRVIVPADPTLWSTDHVRQWLEWAVKEYGLPDVNILLFQNIDGKELCKMTKDDFQRLTPSYNADGLLSHLHYLRE [I71G]: the abundance fitness is -0.174 ± 0.037. For the variant NMTTNERRVIVPADPTLWSTDHVRQWLEWAVKEYGLPDVNILLFQNIDGKELCKMTKDDFQRLTPSYNADNLLSHLHYLRE [I71N], the abundance fitness was -0.624 ± 0.23. Take NMTTNERRVIVPADPTLWSTDHVRQWLEWAVKEYGLPDVNILLFQNIDGKELCKMTKDDFQRLTPSYNADKLLSHLHYLRE [I71K]: the abundance fitness came to 0.074 ± 0.064.

Turning to NMTTNERRVIVPADPTLWSTDHVRQWLEWAVKEYGLPDVNILLFQNIDGKELCKMTKDDFQRLTPSYNADMLLSHLHYLRE [I71M], the abundance fitness worked out at 0.065 ± 0.077. In the case of NMTTNERRVIVPADPTLWSTDHVRQWLEWAVKEYGLPDVNILLFQNIDGKELCKMTKDDFQRLTPSYNADSLLSHLHYLRE [I71S] it was -0.148 ± 0.056. In the case of NMTTNERRVIVPADPTLWSTDHVRQWLEWAVKEYGLPDVNILLFQNIDGKELCKMTKDDFQRLTPSYNADFLLSHLHYLRE [I71F] it was -0.272 ± 0.11; in that of NMTTNERRVIVPADPTLWSTDHVRQWLEWAVKEYGLPDVNILLFQNIDGKELCKMTKDDFQRLTPSYNADELLSHLHYLRE [I71E], -0.151 ± 0.053; in that of NMTTNERRVIVPADPTLWSTDHVRQWLEWAVKEYGLPDVNILLFQNIDGKELCKMTKDDFQRLTPSYNADHLLSHLHYLRE [I71H], 0.001 ± 0.091. With NMTTNERRVIVPADPTLWSTDHVRQWLEWAVKEYGLPDVNILLFQNIDGKELCKMTKDDFQRLTPSYNADVLLSHLHYLRE [I71V] the figure was 0.059 ± 0.041; with NMTTNERRVIVPADPTLWSTDHVRQWLEWAVKEYGLPDVNILLFQNIDGKELCKMTKDDFQRLTPSYNADQLLSHLHYLRE [I71Q], 0.03 ± 0.055; with NMTTNERRVIVPADPTLWSTDHVRQWLEWAVKEYGLPDVNILLFQNIDGKELCKMTKDDFQRLTPSYNADALLSHLHYLRE [I71A], 0.036 ± 0.042. As for NMTTNERRVIVPADPTLWSTDHVRQWLEWAVKEYGLPDVNILLFQNIDGKELCKMTKDDFQRLTPSYNADPLLSHLHYLRE [I71P], the abundance fitness was determined as 0.06 ± 0.084. With NMTTNERRVIVPADPTLWSTDHVRQWLEWAVKEYGLPDVNILLFQNIDGKELCKMTKDDFQRLTPSYNADYLLSHLHYLRE [I71Y] the figure was -0.266 ± 0.14. With NMTTNERRVIVPADPTLWSTDHVRQWLEWAVKEYGLPDVNILLFQNIDGKELCKMTKDDFQRLTPSYNADWLLSHLHYLRE [I71W] the figure was -0.282 ± 0.064; with NMTTNERRVIVPADPTLWSTDHVRQWLEWAVKEYGLPDVNILLFQNIDGKELCKMTKDDFQRLTPSYNADTLLSHLHYLRE [I71T], 0.05 ± 0.074; with NMTTNERRVIVPADPTLWSTDHVRQWLEWAVKEYGLPDVNILLFQNIDGKELCKMTKDDFQRLTPSYNADRLLSHLHYLRE [I71R], 0.113 ± 0.036.

For NMTTNERRVIVPADPTLWSTDHVRQWLEWAVKEYGLPDVNILLFQNIDGKELCKMTKDDFQRLTPSYNADDLLSHLHYLRE [I71D], the abundance fitness is -0.359 ± 0.089. In the case of NMTTNERRVIVPADPTLWSTDHVRQWLEWAVKEYGLPDVNILLFQNIDGKELCKMTKDDFQRLTPSYNAYILLSHLHYLRE [D70Y] it was -0.293 ± 0.18; in that of NMTTNERRVIVPADPTLWSTDHVRQWLEWAVKEYGLPDVNILLFQNIDGKELCKMTKDDFQRLTPSYNAWILLSHLHYLRE [D70W], -0.42 ± 0.076; in that of NMTTNERRVIVPADPTLWSTDHVRQWLEWAVKEYGLPDVNILLFQNIDGKELCKMTKDDFQRLTPSYNADISLSHLHYLRE [L72S], -0.801 ± 0.13. In the case of NMTTNERRVIVPADPTLWSTDHVRQWLEWAVKEYGLPDVNILLFQNIDGKELCKMTKDDFQRLTPSYNADITLSHLHYLRE [L72T] it was -0.543 ± 0.12; in that of NMTTNERRVIVPADPTLWSTDHVRQWLEWAVKEYGLPDVNILLFQNIDGKELCKMTKDDFQRLTPSYNADIGLSHLHYLRE [L72G], -0.953 ± 0.086; in that of NMTTNERRVIVPADPTLWSTDHVRQWLEWAVKEYGLPDVNILLFQNIDGKELCKMTKDDFQRLTPSYNADINLSHLHYLRE [L72N], -1.02 ± 0.49. In the case of NMTTNERRVIVPADPTLWSTDHVRQWLEWAVKEYGLPDVNILLFQNIDGKELCKMTKDDFQRLTPSYNADIKLSHLHYLRE [L72K] it was -0.952 ± 0.27; in that of NMTTNERRVIVPADPTLWSTDHVRQWLEWAVKEYGLPDVNILLFQNIDGKELCKMTKDDFQRLTPSYNADIILSHLHYLRE [L72I], -0.199 ± 0.34. NMTTNERRVIVPADPTLWSTDHVRQWLEWAVKEYGLPDVNILLFQNIDGKELCKMTKDDFQRLTPSYNADIVLSHLHYLRE [L72V]: the abundance fitness is -0.471 ± 0.11. With NMTTNERRVIVPADPTLWSTDHVRQWLEWAVKEYGLPDVNILLFQNIDGKELCKMTKDDFQRLTPSYNADICLSHLHYLRE [L72C] the figure was -0.726 ± 0.13. With NMTTNERRVIVPADPTLWSTDHVRQWLEWAVKEYGLPDVNILLFQNIDGKELCKMTKDDFQRLTPSYNADIHLSHLHYLRE [L72H] the figure was -0.909 ± 0.45; with NMTTNERRVIVPADPTLWSTDHVRQWLEWAVKEYGLPDVNILLFQNIDGKELCKMTKDDFQRLTPSYNADIPLSHLHYLRE [L72P], -0.649 ± 0.26; with NMTTNERRVIVPADPTLWSTDHVRQWLEWAVKEYGLPDVNILLFQNIDGKELCKMTKDDFQRLTPSYNADIQLSHLHYLRE [L72Q], -0.697 ± 0.18.

With NMTTNERRVIVPADPTLWSTDHVRQWLEWAVKEYGLPDVNILLFQNIDGKELCKMTKDDFQRLTPSYNADIELSHLHYLRE [L72E], the abundance fitness was -0.719 ± 0.11. In the case of NMTTNERRVIVPADPTLWSTDHVRQWLEWAVKEYGLPDVNILLFQNIDGKELCKMTKDDFQRLTPSYNADIALSHLHYLRE [L72A] it was -0.821 ± 0.11. With NMTTNERRVIVPADPTLWSTDHVRQWLEWAVKEYGLPDVNILLFQNIDGKELCKMTKDDFQRLTPSYNADIRLSHLHYLRE [L72R] the figure was -0.714 ± 0.077; with NMTTNERRVIVPADPTLWSTDHVRQWLEWAVKEYGLPDVNILLFQNIDGKELCKMTKDDFQRLTPSYNADIDLSHLHYLRE [L72D], -0.97 ± 0.33.
